Molecular target: GST fusion of the SET domain of Trithorax, GST-TrxSET (Drosophila)
Experiment: pull-down; 1 μg GST-E(z)SET or GST-TrxSET immobilised on GSH-agarose, mixed 2 h at 4 °C with pre-cleared reticulocyte lysate holding 35S-Asx or its deletion fragments; washes with 0.6 M NaCl, pH 7.9; SDS-PAGE and autoradiography, densitometry relative to GST

Chain of GST fusion of the SET domain of Trithorax, GST-TrxSET (Drosophila) (P20659 3583-3709): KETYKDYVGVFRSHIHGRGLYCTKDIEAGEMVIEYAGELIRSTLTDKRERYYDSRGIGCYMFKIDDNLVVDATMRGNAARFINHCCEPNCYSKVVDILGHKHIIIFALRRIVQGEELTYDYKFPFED

fold weaker than the Asx-E(z)(SET) interaction: 5 fold
Substance: full-length Additional sex combs (Asx), 35S-methionine-labelled, in vitro translated, A(1-1669) (from UniProt Q9V727 1-1669) (natural protein)
